{"source": "the RNAGym collection of RNA variant scans (doi:10.7554/elife.80360)", "parents": {"B1": {"name": "CPEB3 Ribozyme (parent)", "chain": "GGGGGCCACAGCAGAAGCGUUCACGUCGCGGCCCCUGUCAGAUUCUGGUGAAUCUGCGAAUUCUGCUGU"}}, "data": [{"variants_of": "B1", "assay": "self-cleavage, relative activity (ratio to wild type); higher = more cleavage; co-transcriptional", "values": [{"variant": "A40C U46G", "self-cleavage": 0.802}, {"variant": "A40C U46C", "self-cleavage": 0.273}, {"variant": "A40C U46A", "self-cleavage": 0.866}, {"variant": "G41C G56U", "self-cleavage": 0.369}, {"variant": "G41C G56A", "self-cleavage": 0.667}, {"variant": "G41A U46C", "self-cleavage": 0.706}, {"variant": "G41A U46A", "self-cleavage": 0.863}, {"variant": "G41C A59G", "self-cleavage": 0.845}, {"variant": "G41C A59C", "self-cleavage": 0.225}, {"variant": "G41A U49G", "self-cleavage": 0.859}, {"variant": "G41A U49C", "self-cleavage": 0.825}, {"variant": "A42C C54G", "self-cleavage": 0.73}, {"variant": "G41C G47A", "self-cleavage": 0.904}, {"variant": "A40G A59G", "self-cleavage": 0.935}, {"variant": "A40G A59C", "self-cleavage": 0.568}, {"variant": "G41C U46A", "self-cleavage": 0.921}, {"variant": "G41A A60U", "self-cleavage": 0.278}, {"variant": "G41A A60C", "self-cleavage": 0.295}, {"variant": "A40C G47U", "self-cleavage": 0.905}, {"variant": "A40C U67A", "self-cleavage": 0.518}, {"variant": "A40C U67G", "self-cleavage": 0.744}, {"variant": "A40C G68A", "self-cleavage": 0.882}, {"variant": "A40U G50C", "self-cleavage": 0.643}, {"variant": "A40U G50A", "self-cleavage": 0.731}, {"variant": "G41U A51G", "self-cleavage": 0.837}, {"variant": "G41U A51U", "self-cleavage": 0.609}, {"variant": "G41A C66G", "self-cleavage": 0.429}, {"variant": "A40U G47C", "self-cleavage": 0.88}, {"variant": "G41U C45A", "self-cleavage": 0.422}, {"variant": "G41U C45G", "self-cleavage": 0.47}, {"variant": "A40C U61A", "self-cleavage": 0.304}, {"variant": "A40C U61G", "self-cleavage": 0.192}, {"variant": "A40C U61C", "self-cleavage": 0.339}, {"variant": "A42C C66U", "self-cleavage": 0.96}, {"variant": "A42C C66G", "self-cleavage": 0.661}, {"variant": "A42C A52G", "self-cleavage": 0.919}, {"variant": "A42C A52U", "self-cleavage": 0.96}, {"variant": "A42C A52C", "self-cleavage": 0.803}, {"variant": "A40C U55C", "self-cleavage": 0.515}, {"variant": "A40C U55A", "self-cleavage": 0.697}, {"variant": "A40U U53C", "self-cleavage": 0.296}, {"variant": "A42C C57A", "self-cleavage": 0.398}, {"variant": "A42C C57U", "self-cleavage": 0.376}, {"variant": "A42C C57G", "self-cleavage": 0.342}, {"variant": "A40U G48C", "self-cleavage": 0.893}, {"variant": "A40U G48U", "self-cleavage": 0.936}, {"variant": "A40G U53A", "self-cleavage": 0.759}, {"variant": "A40G U53C", "self-cleavage": 0.649}, {"variant": "A40G U53G", "self-cleavage": 0.813}, {"variant": "G41A U62C", "self-cleavage": 0.383}, {"variant": "G41A U62G", "self-cleavage": 0.422}, {"variant": "G41A U62A", "self-cleavage": 0.474}, {"variant": "A40G G56A", "self-cleavage": 0.949}, {"variant": "A40G G56U", "self-cleavage": 0.895}, {"variant": "A40U G68C", "self-cleavage": 0.876}, {"variant": "A40U G68U", "self-cleavage": 0.877}, {"variant": "A40U G68A", "self-cleavage": 0.937}, {"variant": "G41A U55G", "self-cleavage": 0.379}, {"variant": "G41A U55A", "self-cleavage": 0.596}, {"variant": "G41U U69A", "self-cleavage": 0.995}, {"variant": "G41U U69G", "self-cleavage": 1.02}, {"variant": "A40G U46A", "self-cleavage": 0.971}, {"variant": "A40G U46C", "self-cleavage": 0.942}, {"variant": "A40G U46G", "self-cleavage": 0.977}, {"variant": "A40C U53C", "self-cleavage": 0.219}, {"variant": "A40C U53A", "self-cleavage": 0.311}, {"variant": "A40C U53G", "self-cleavage": 0.15}, {"variant": "G41U G56A", "self-cleavage": 0.581}, {"variant": "G41A A52U", "self-cleavage": 0.683}, {"variant": "G41A A52G", "self-cleavage": 0.716}, {"variant": "G41C U67A", "self-cleavage": 0.716}, {"variant": "G41C U67G", "self-cleavage": 0.787}, {"variant": "G41U G50C", "self-cleavage": 0.54}, {"variant": "A40G G47U", "self-cleavage": 1.02}, {"variant": "A40G G47A", "self-cleavage": 0.987}, {"variant": "A40U A42G", "self-cleavage": 0.189}, {"variant": "A40U A42U", "self-cleavage": 0.46}, {"variant": "A40U A42C", "self-cleavage": 0.419}, {"variant": "A40G G65A", "self-cleavage": 0.756}, {"variant": "A40G G65C", "self-cleavage": 0.434}, {"variant": "G41U G47C", "self-cleavage": 0.967}, {"variant": "G41U G47U", "self-cleavage": 0.999}, {"variant": "A42C G50A", "self-cleavage": 0.952}, {"variant": "A42C G50C", "self-cleavage": 0.858}, {"variant": "A40C U49C", "self-cleavage": 0.584}, {"variant": "A40C U49A", "self-cleavage": 0.679}, {"variant": "A40C U49G", "self-cleavage": 0.658}, {"variant": "A40U C63U", "self-cleavage": 0.77}, {"variant": "A40U C63G", "self-cleavage": 0.392}, {"variant": "G41C G58A", "self-cleavage": 0.772}, {"variant": "G41A U69A", "self-cleavage": 0.912}, {"variant": "G41A U69G", "self-cleavage": 1}, {"variant": "G41A U69C", "self-cleavage": 1.03}, {"variant": "A40C U64A", "self-cleavage": 0.357}, {"variant": "G41A C57G", "self-cleavage": 0.299}, {"variant": "G41A C57U", "self-cleavage": 0.368}, {"variant": "G41A C57A", "self-cleavage": 0.283}, {"variant": "A40G G50A", "self-cleavage": 0.918}, {"variant": "A40G G50C", "self-cleavage": 0.943}, {"variant": "A40G G50U", "self-cleavage": 0.971}, {"variant": "A42C A60U", "self-cleavage": 0.459}, {"variant": "G41U A59C", "self-cleavage": 0.412}, {"variant": "G41U A59G", "self-cleavage": 0.933}, {"variant": "A40G A42G", "self-cleavage": 0.822}, {"variant": "A40G A42U", "self-cleavage": 0.763}, {"variant": "A40G C45U", "self-cleavage": 0.933}, {"variant": "A40G C45A", "self-cleavage": 0.884}, {"variant": "G41A G56U", "self-cleavage": 0.307}, {"variant": "G41A G56C", "self-cleavage": 0.31}, {"variant": "A40U C45A", "self-cleavage": 0.629}, {"variant": "A40U C45G", "self-cleavage": 0.744}, {"variant": "A40U C45U", "self-cleavage": 0.799}, {"variant": "A40C G58C", "self-cleavage": 0.776}, {"variant": "A40C G58U", "self-cleavage": 0.727}, {"variant": "A40G G58A", "self-cleavage": 0.912}, {"variant": "A40G G58U", "self-cleavage": 0.963}, {"variant": "A40G G58C", "self-cleavage": 0.973}, {"variant": "G41U U62A", "self-cleavage": 0.506}, {"variant": "G41U U62C", "self-cleavage": 0.384}, {"variant": "G41C A52C", "self-cleavage": 0.332}, {"variant": "A40G U49G", "self-cleavage": 0.999}, {"variant": "A40G U49A", "self-cleavage": 0.969}, {"variant": "A40G U49C", "self-cleavage": 0.877}, {"variant": "G41U G48C", "self-cleavage": 0.952}, {"variant": "G41U G48U", "self-cleavage": 0.99}, {"variant": "G41A U53A", "self-cleavage": 0.65}, {"variant": "G41A U53G", "self-cleavage": 0.566}, {"variant": "A40U U44G", "self-cleavage": 0.623}, {"variant": "A40U U44C", "self-cleavage": 0.262}, {"variant": "G41C U55C", "self-cleavage": 0.394}, {"variant": "A40G G48C", "self-cleavage": 0.98}, {"variant": "A40G G48U", "self-cleavage": 0.969}, {"variant": "A40G G48A", "self-cleavage": 1}, {"variant": "G41U U43A", "self-cleavage": 0.3}, {"variant": "G41U U43G", "self-cleavage": 0.267}, {"variant": "G41U U43C", "self-cleavage": 0.357}, {"variant": "G41A C45U", "self-cleavage": 0.677}, {"variant": "G41C U43A", "self-cleavage": 0.31}, {"variant": "G41C U43C", "self-cleavage": 0.486}, {"variant": "G41C U43G", "self-cleavage": 0.25}, {"variant": "A40U U67G", "self-cleavage": 0.886}, {"variant": "A40U U67A", "self-cleavage": 0.776}, {"variant": "A40U U67C", "self-cleavage": 0.845}, {"variant": "A40G C57G", "self-cleavage": 0.326}, {"variant": "A40U A59G", "self-cleavage": 0.887}, {"variant": "A40U A59U", "self-cleavage": 0.459}, {"variant": "A40U C54G", "self-cleavage": 0.457}, {"variant": "A40U C54U", "self-cleavage": 0.759}, {"variant": "G41U U67C", "self-cleavage": 0.872}, {"variant": "G41C G48C", "self-cleavage": 0.869}, {"variant": "G41C G48U", "self-cleavage": 0.966}, {"variant": "G41U C54G", "self-cleavage": 0.95}, {"variant": "G41U C54U", "self-cleavage": 0.94}, {"variant": "G41U C54A", "self-cleavage": 0.972}, {"variant": "G41C C66G", "self-cleavage": 0.369}, {"variant": "G41U U61G", "self-cleavage": 0.314}, {"variant": "G41U U61C", "self-cleavage": 0.402}, {"variant": "G41U U61A", "self-cleavage": 0.64}, {"variant": "A42C G47A", "self-cleavage": 0.921}, {"variant": "G41C U64G", "self-cleavage": 0.426}, {"variant": "G41C U64A", "self-cleavage": 0.369}, {"variant": "G41A U43A", "self-cleavage": 0.335}, {"variant": "G41A U43C", "self-cleavage": 0.416}, {"variant": "A40U U69A", "self-cleavage": 0.964}, {"variant": "A40U U69G", "self-cleavage": 0.987}, {"variant": "A40U U69C", "self-cleavage": 1}, {"variant": "G41A G48A", "self-cleavage": 0.989}]}]}
